Laboratory results reported in the supplement of paper PMC10126150.
± gives the standard deviation of the averaged measurements.

The sequences below were run on ATP (assay: switch fluorescence ratio, 500 uM ATP over buffer (Cy3 cluster intensity, sum of 5 cycles each) (fold (ratio)); higher = stronger signal-on switching upon ATP binding; sequences stand for … in TCGTCGGCAGCGTCAGATGTGTATAAGAGACAGTTTTTTTTTTTTTTTTTTTTTTTTT…TC). Details: aptamer strand: ATP DNA aptamer (quencher-CACCTGGGGGAGTATTGCGGAGGAAGG + anchor), 100 nM annealed; ATP concentration: 500 uM.
In short: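 Per cluster, summed Cy3 intensity from the target cycles was divided by that from the buffer cycles to give the fluorescence ratio, then averaged per switch-domain sequence. Clusters outside 100-1000 RFU were excluded. The Cy3-labelled switching-strand clusters, on a modified Illumina MiSeq flow-cell, were annealed to 100 nM quencher-labelled ATP aptamer and imaged in selection buffer, then after 15 min with 500 uM ATP at 22 °C, for five cycles with NaOH stripping and re-annealing between them.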
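Also: ATP exposure 15 min at 22 °C before imaging.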

| Sequence | switch fluorescence ratio |
| --- | --- |
| GTAATGGGCA | 1.03 ± 0.054 |
| GTAATTATGT | 1.02 ± 0.016 |
| GTAATTGGAG | 0.992 ± 0.016 |
| GTAATTTGTT | 1.01 ± 0.014 |
| GTACCTATCG | 1.01 ± 0.03 |
| GTACGAAGTT | 0.973 ± 0.013 |
| GTACGAGGGG | 0.992 ± 0.016 |
| GTACGCGGAC | 1.07 ± 0.022 |
| GTACTGTCTC | 0.9929 ± 0.0049 |
| GTACTTGGTC | 1.03 ± 0.048 |
| GTAGAAACGC | 0.998 ± 0.01 |
| GTAGAAAGGA | 2.3 ± 1.8 |
| GTAGCTGCGG | 1.02 ± 0.038 |
| GTAGCTTTGG | 1.04 ± 0.027 |
| GTAGGAAGTG | 0.9935 ± 0.0091 |
| GTAGGACTTG | 0.953 ± 0.025 |
| GTAGGAGGAG | 0.991 ± 0.032 |
| GTAGGCATGG | 1 ± 0.029 |
| GTAGGGAGTT | 0.977 ± 0.012 |
| GTAGGGGCGG | 1.0124 ± 0.00012 |
| GTAGGGGGAC | 1.05 ± 0.099 |
| GTAGGGTAAG | 0.988 ± 0.039 |
| GTAGTAAGGC | 2.23 ± 0.54 |
| GTAGTACCGG | 1.02 ± 0.028 |
| GTAGTAGGGC | 1.06 ± 0.016 |

| Sequence | switch fluorescence ratio |
| --- | --- |
| GTAGTAGGGG | 0.999 ± 0.015 |
| GTAGTATGAG | 0.999 ± 0.014 |
| GTAGTATGCA | 1.01 ± 0.02 |
| GTAGTGAGCT | 0.999 ± 0.05 |
| GTAGTGGCGA | 1.04 ± 0.026 |
| GTAGTTATGG | 1.04 ± 0.03 |
| GTAGTTTTGT | 0.987 ± 0.032 |
| GTATAAACCC | 1.03 ± 0.019 |
| GTATAATGAT | 0.977 ± 0.03 |
| GTATATCTGT | 1.01 ± 0.052 |
| GTATCATGCC | 1.01 ± 0.011 |
| GTATCCAGGG | 1.13 ± 0.036 |
| GTATCTTGGG | 1.04 ± 0.042 |
| GTATGATTCG | 0.9843 ± 0.0051 |
| GTATGGGGGG | 0.985 ± 0.026 |
| GTATGGTCGG | 0.9991 ± 0.0074 |
| GTATGTACTG | 1.04 ± 0.04 |
| GTATGTTGGG | 1.08 ± 0.045 |
| GTATTCAGTA | 0.995 ± 0.022 |
| GTATTCGTTT | 1 ± 0.028 |
| GTATTGCCAG | 0.995 ± 0.029 |
| GTATTGGGGC | 0.9807 ± 0.0029 |
| GTATTTCATA | 1.01 ± 0.0031 |
| GTATTTTTAG | 0.993 ± 0.033 |
| GTCACCCTTT | 1.01 ± 0.014 |

| Sequence | switch fluorescence ratio |
| --- | --- |
| GTCACCGACT | 1 ± 0.013 |
| GTCAGAGAGT | 1.02 ± 0.013 |
| GTCAGGATTT | 0.9925 ± 0.0087 |
| GTCAGGCTGA | 0.97427 ± 0.00022 |
| GTCAGGGCGA | 0.9931 ± 0.0023 |
| GTCAGGGGGT | 1.04 ± 0.068 |
| GTCAGGGTAC | 1.09 ± 0.072 |
| GTCAGTGAAT | 0.988 ± 0.057 |
| GTCATAGTGG | 0.9804 ± 0.003 |
| GTCATTTAAG | 0.991 ± 0.019 |
| GTCCAAGGGG | 1.04 ± 0.032 |
| GTCCGAAGGC | 0.988 ± 0.014 |
| GTCCGGCTCG | 0.9897 ± 0.0011 |
| GTCCTTTGCC | 1.06 ± 0.011 |
| GTCGAAAGGA | 0.9634 ± 0.0078 |
| GTCGAGGAAT | 1.003 ± 0.0092 |
| GTCGAGGGGA | 1.01 ± 0.035 |
| GTCGATTTAT | 0.986 ± 0.045 |
| GTCGCCGGGT | 0.994 ± 0.026 |
| GTCGCTTAGT | 0.973 ± 0.018 |
| GTCGGACATG | 0.993 ± 0.073 |
| GTCGGATAGT | 0.996 ± 0.013 |
| GTCGGCAGGT | 0.994 ± 0.015 |
| GTCGGCATGG | 1.07 ± 0.059 |
| GTCGGGAGGC | 1.02 ± 0.022 |

| Sequence | switch fluorescence ratio |
| --- | --- |
| GTCGGGATAT | 1.03 ± 0.018 |
| GTCGGGGAGG | 1.04 ± 0.031 |
| GTCGGGGTTA | 0.989 ± 0.036 |
| GTCGGTAAAC | 1.06 ± 0.014 |
| GTCGGTACGG | 1 ± 0.026 |
| GTCGGTATTT | 0.986 ± 0.03 |
| GTCGGTTGGG | 0.99 ± 0.026 |
| GTCGTAGCTT | 1.058 ± 0.0089 |
| GTCGTATAGG | 0.978 ± 0.023 |
| GTCGTATGAT | 0.9993 ± 0.0091 |
| GTCGTGTGGG | 0.996 ± 0.0025 |
| GTCGTTTGGA | 1.01 ± 0.035 |
| GTCTAGGGGG | 1.05 ± 0.089 |
| GTCTATATGG | 0.997 ± 0.032 |
| GTCTCAAGTT | 1.02 ± 0.011 |
| GTCTCTGGGG | 1.08 ± 0.083 |
| GTCTGGGCGG | 0.9919 ± 0.0031 |
| GTCTGGGGTG | 1.04 ± 0.021 |
| GTCTGGTTGA | 1.02 ± 0.033 |
| GTCTGTGGGT | 0.972 ± 0.06 |
| GTCTTTAACT | 0.982 ± 0.059 |
| GTCTTTTAGG | 0.9981 ± 0.0086 |
| GTCTTTTGTA | 0.983 ± 0.04 |
| GTCTTTTTTT | 0.96 ± 0.045 |
| GTGAAAACCG | 1.03 ± 0.062 |

| Sequence | switch fluorescence ratio |
| --- | --- |
| GTGAAAAGGC | 0.9862 ± 0.0032 |
| GTGAAGAAGG | 1.13 ± 0.2 |
| GTGACAATTT | 0.998 ± 0.069 |
| GTGACAGGTC | 0.974 ± 0.038 |
| GTGACGGGGG | 1.02 ± 0.029 |
| GTGAGCTGAT | 1.023 ± 0.0081 |
| GTGAGCTTGT | 1.02 ± 0.013 |
| GTGAGGGAGC | 1.12 ± 0.27 |
| GTGAGGGGGA | 1 ± 0.033 |
| GTGAGGGGGC | 0.993 ± 0.1 |
| GTGAGGGGTG | 0.996 ± 0.032 |
| GTGAGTAATT | 1.02 ± 0.078 |
| GTGAGTATCG | 0.968 ± 0.0098 |
| GTGAGTGCCT | 1.006 ± 0.01 |
| GTGAGTGTAT | 0.9682 ± 0.0092 |
| GTGATAACGG | 1.008 ± 0.0091 |
| GTGATACCGT | 0.99 ± 0.0087 |
| GTGATAGGGA | 1 ± 0.013 |
| GTGATAGTGG | 0.9385 ± 0.0022 |
| GTGATATAGG | 1.03 ± 0.041 |
| GTGATATGAG | 1.01 ± 0.036 |
| GTGATGACAT | 1 ± 0.013 |
| GTGATGGGTT | 0.953 ± 0.014 |
| GTGATGGTT | 0.984 ± 0.03 |
| GTGCAACTAC | 2.93 ± 0.32 |

| Sequence | switch fluorescence ratio |
| --- | --- |
| GTGCAAGGCG | 0.988 ± 0.032 |
| GTGCAGGGGC | 1.04 ± 0.019 |
| GTGCATGGGG | 1.02 ± 0.0056 |
| GTGCCGGGTT | 1.03 ± 0.066 |
| GTGCGGGGCG | 1.02 ± 0.067 |
| GTGCTACGTG | 0.966 ± 0.059 |
| GTGCTGCCGG | 1.01 ± 0.049 |
| GTGGAAATAG | 1.01 ± 0.05 |
| GTGGAAGCCG | 1.013 ± 0.0034 |
| GTGGAAGCTT | 1.01 ± 0.041 |
| GTGGACAACG | 0.9924 ± 0.0099 |
| GTGGAGAGGG | 0.993 ± 0.038 |
| GTGGAGGGTT | 1.03 ± 0.04 |
| GTGGATAATG | 0.996 ± 0.056 |
| GTGGATATGG | 0.995 ± 0.043 |
| GTGGATTCAC | 0.98 ± 0.0096 |
| GTGGATTGGT | 0.974 ± 0.013 |
| GTGGCCATTA | 0.995 ± 0.02 |
| GTGGCCGGGT | 1.03 ± 0.0047 |
| GTGGCGGATT | 1.02 ± 0.013 |
| GTGGCTAATT | 1 ± 0.015 |
| GTGGCTGTTT | 1.02 ± 0.02 |
| GTGGGAAAAA | 1.01 ± 0.0085 |
| GTGGGAAGGT | 0.994 ± 0.038 |
| GTGGGATAAT | 1.02 ± 0.021 |

| Sequence | switch fluorescence ratio |
| --- | --- |
| GTGGGATATA | 0.995 ± 0.049 |
| GTGGGATATT | 0.9809 ± 0.0056 |
| GTGGGATGTT | 1.01 ± 0.015 |
| GTGGGATTAT | 1 ± 0.019 |
| GTGGGCAGGT | 0.988 ± 0.024 |
| GTGGGCGGTC | 0.995 ± 0.057 |
| GTGGGCGTTT | 1 ± 0.017 |
| GTGGGGAAAG | 0.99 ± 0.034 |
| GTGGGGAAGG | 1.02 ± 0.054 |
| GTGGGGATGG | 0.966 ± 0.024 |
| GTGGGGATTG | 0.9379 ± 0.0016 |
| GTGGGGCAGT | 0.996 ± 0.025 |
| GTGGGGCGGG | 0.999 ± 0.02 |
| GTGGGGCTTA | 0.994 ± 0.032 |
| GTGGGGGAA | 0.994 ± 0.034 |
| GTGGGGGCGT | 1 ± 0.026 |
| GTGGGGGGGC | 0.989 ± 0.032 |
| GTGGGGGGTA | 1 ± 0.031 |
| GTGGGGGGTT | 0.993 ± 0.026 |
| GTGGGGGTCT | 0.972 ± 0.013 |
| GTGGGGTAGT | 0.995 ± 0.018 |
| GTGGGGTATG | 0.977 ± 0.032 |
| GTGGGGTTGT | 0.973 ± 0.022 |
| GTGGGGTTTG | 1.01 ± 0.041 |
| GTGGGTGAC | 0.977 ± 0.049 |

| Sequence | switch fluorescence ratio |
| --- | --- |
| GTGGGTTGTT | 0.9719 ± 0.005 |
| GTGGTAAGGG | 0.972 ± 0.034 |
| GTGGTAATGG | 0.953 ± 0.021 |
| GTGGTAGCAC | 1.01 ± 0.025 |
| GTGGTAGGTA | 0.998 ± 0.021 |
| GTGGTAGGTT | 0.981 ± 0.027 |
| GTGGTATGTG | 0.95 ± 0.045 |
| GTGGTCGGGA | 1.09 ± 0.15 |
| GTGGTGCTTA | 0.996 ± 0.032 |
| GTGGTGGTGG | 0.996 ± 0.023 |
| GTGGTTACAG | 1.02 ± 0.011 |
| GTGGTTAGCA | 0.9712 ± 0.0065 |
| GTGGTTGGGT | 0.979 ± 0.023 |
| GTGGTTGTAT | 0.974 ± 0.015 |
| GTGGTTGTCG | 0.983 ± 0.015 |
| GTGGTTGTTT | 1.01 ± 0.049 |
| GTGTAAATAG | 1.01 ± 0.025 |
| GTGTAAATCT | 1.036 ± 0.0046 |
| GTGTAAGTA | 0.9702 ± 0.0042 |
| GTGTACAAAT | 0.9896 ± 0.0041 |
| GTGTACGTGG | 1.008 ± 0.0057 |
| GTGTAGAGGG | 1 ± 0.048 |
| GTGTATGGAT | 1.023 ± 0.0066 |
| GTGTATGTTT | 1.01 ± 0.028 |
| GTGTCATAGT | 0.9923 ± 0.0016 |
